Legend:
[1] = target: T1, Gal1 (Homo sapiens, UniProt P09382); assay: Binding of 488-Gal1 to HUVEC
T1 construct: made in house
Method: For glycophenotyping, ECs were incubated with biotinylated L-PHA, LEL, SNA, MAL II, PNA and HPA (all from Vector). Recombinant Gal1 was purified as described in Ilarregui et al. (2009) Nat Immunol 10, 981-991. For binding assays, ECs were incubated for 1 h at 4° C. with dyLight 488-labeled galectins in the absence or presence of lactose, sucrose, anti-Gal1 or isotype control mAb or following transfection with GnT5, GCNT1 or scrambled siRNA. Cells were analyzed on a FACSAria (BD Biosciences). For segregation, ECs were treated with Gal1 for 1 h, fixed and incubated for 1 h with anti-human VEGFR2 antibody (55B11; Cell Signaling) as described in Ilarregui et al. (2009) Nat Immunol 10, 981-991. Cells were analyzed on a Nikon laser confocal microscope (Eclipse E800).
DyLight 488-conjugated Gal1 (488-Gal1) was obtained using DyLight labeling kit (Thermo Scientific). Inhibitors of Jak2-STAT3 (AG490; 5 μM), Jnk-SAP (SP600125; 20 μM), p38 (SB202190; 10 μM), HIF-1α (3 μM) and O-glycosylation (benzyl-α-Ga1NAc; 2 mM) were from Calbiochem. Inhibitors of Erk1/2 (U0126; 5 μM), PI(3)K-Akt (Ly294002; 2 μM) and NF-κB (BAY 11-7082; 1 μM), ROS (N-acetyl-cysteine; NAC), N-glycosylation (swainsonine; 3 μM), lactose or sucrose (30 mM) were from Sigma. PNGase F (25 U/μg protein) was from New England Biolabs. Recombinant cytokines including IL-10 (50 ng/ml), IL-17 (5 ng/ml), TGF-β1 (3 ng/ml), IFN-γ (50 ng/ml), VEGF (20 ng/ml), bFGF (10 ng/ml) were from R&D. TNF (20 ng/ml) was from Sigma. Biotinylated lectins, including L-PHA (2 μg/ml), LEL (1 μg/ml), SNA (5 μg/ml), MAL II (10 μg/ml), PNA (10 μg/ml) and HPA (10 μg/ml) were purchased from Vector Labs and incubated in buffer containing 150 mM NaCl, 10 mM HEPES and 1% BSA (Sigma). ON-TARGETplus SMART siRNA pools against GnT5, GCNT1, VEGFR2, NRP-1, VEGF, HIF-1α and scrambled were obtained from Dharmacon. Transfections were performed by Lipofectamine-RNAiMAX (Invitrogen) following manufacturer's directions. Recombinant Gal3 and Gal8 were purified as described in Acosta-Rodriguez et al. (2004) J Immunol 172, 493-502 and Cardenas Delgado et al. (2010) FASEB J [Epub ahead of print].

[2] = test system: HUVEC; assay: HUVEC proliferation ([3H]thymidine incorporation); format: cell-based, human
Method: (§1) HUVEC transfected or not with specific siRNA or pre-incubated with signaling pathway inhibitors were exposed to VEGF or Gal1 with or without lactose, sucrose, 8F4F8G7 mAb or control isotype (IgG1κ) or specific antibodies for VEGFR1 (AP-MAB0702; Abcam), VEGFR2 (AF357; R&D), VEGFR3 (AB89501; Abcam) or VEGF (MAB293; R&D). Cells were processed for proliferation, migration, invasion and tube formation assays. Tumor-associated blood vessels were identified by flow cytometry using Alexa Fluor 647-conjugated anti-CD34 antibody (RAM34; eBioscience).
For proliferation assays, HUVEC that were transfected or not with specific siRNA and cultured in complete M199 medium were trypsinized, harvested and seeded in 96-well microtiter plates (1×10^3 cells/well). Cells were pre-incubated for 1 hour at 37° C. with lactose, sucrose or signaling pathway inhibitors and then exposed to Gal1. After 24 hours, cells were incubated for an additional 24 hours in the presence of 0.8 μCi [^3H]-thymidine (NEN Dupont). Cells were then harvested and radioactivity was measured in a 1414 Liquid Scintillation Counter (Perkin Elmer).

[3] = test system: HUVEC; assay: HUVEC migration (transwell); format: cell-based, human
Method: as §1
(§2) The formation of capillary-like tubular structures was assessed in Matrigel-coated plates essentially as described in Albini et al. (2001), Cancer Res 61, 8171-8178. In brief, HUVEC (3×10^4 cells/ml) transfected or not with specific siRNA or pre-incubated with signaling pathway inhibitors were seeded on Matrigel with our without Gal1 (0.1 to 3 μM) or VEGF (20 ng/ml) with or without lactose, sucrose, 8F4F8G7 mAb (0.5 μM) or isotype control (IgG1K) or blocking antibodies specific for VEGFR1 (5 μg/ml), VEGFR2 (2 μg/ml), VEGFR3 (10 μg/ml) or VEGF (10 μg/ml). Cells were incubated at 37° C. for periods ranging from 0 to 24 h and were visualized by phase-contrast microscopy. In another set of experiments, conditioned medium from hypoxic or normoxic KS cells infected or not with a retroviral vector containing Gal1 shRNA was assessed on HUVEC transfected or not with GnT5, GCNT1 or scr siRNA (100 nM). Capillary-like tubular structures were scored by counting the number of tubules (closed areas) per well in a phase-contrast microscope (Nikon E-100). For migration assays, HUVEC (4×10^4/well) transfected or not with specific siRNA were resuspended in M199 medium supplemented with 1% FCS. Cells were placed into the top chamber of the insert while the bottom well was filled with Gal1 or VEGF in the absence or presence of lactose, sucrose, 8F4F8G7 mAb or isotype control. After 24 hours, inserts were stained with crystal violet (Sigma) and analyzed in an inverted microscope. For each filter, 4 images were collected and cells were counted with the ImageJ software v1.34 (NIH).

[4] = test system: HUVEC; assay: HUVEC capillary tube formation on Matrigel; format: cell-based, human
Method: as §1, §2

[5] = target: T2, recombinant human glutathione-s-transferase (GST)-Gal1 (human, UniProt P09382 1-135); assay: ELISA on recombinant protein
T2 construct: Immunogen and ELISA antigen; not shown: glutathione-S-transferase (GST) tag
Source text: (§3) Anti-human Gal1 mAbs were obtained by immunizing B6-Cg-Tg (BCL2)22Wehi-J mice (Jackson Labs, Bar Harbor, Me.) with recombinant human glutathione-s-transferase (GST)-Gal1, generating anti-Gal1 hybridomas with standard methods and purifying the Gal1 monoclonal antibody and class-matched IgG2bλ, control by affinity chromatography. […] A previously described anti-Gal1 polyclonal antibody (Juszczynski et al. (2007) *Proc Natl Acad Sci USA* 104:13134-9) was used as a positive control in all assays.

[6] = target: T3, recombinant His-Gal1 (human, UniProt P09382 1-135, limits assumed); assay: ELISA on recombinant protein
T3 construct: not shown: His tag
Source text: as §3

T1 sequence (P09382 whole entry): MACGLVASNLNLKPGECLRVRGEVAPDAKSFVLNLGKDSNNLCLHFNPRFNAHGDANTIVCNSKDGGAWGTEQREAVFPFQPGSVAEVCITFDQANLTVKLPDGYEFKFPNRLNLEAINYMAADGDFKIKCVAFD
T3 sequence (P09382 whole entry): as above
T2 sequence (P09382 whole entry): as above

Row | Molecule | binding of fluorescently-labeled Gal1 to ECs ([1]; flow cytometry) | EC proliferation ([2]; HUVEC treated with Gal1) | EC migration ([3]; HUVEC treated with Gal1) | formation of three-dimensional tubular networks ([4]; HUVEC treated with Gal1) | binding result [5] | binding result [6] | effect on binding of Gal1 to ECs ([1]; lactose/sucrose 30 mM, swainsonine 3 μM, benzyl-α-GalNAc 2 mM, mAb 0.5 μM) | effect on Gal1-induced EC proliferation ([2]; induced by Gal1) | effect on Gal1-induced EC migration ([3]; induced by Gal1) | effect on EC migration in the absence of exogenous Gal1 ([3]; no exogenous Gal1) | effect on Gal1-induced capillary tube formation ([4]; induced by Gal1) | effect on tube formation in the absence of exogenous Gal1 ([4]; no exogenous Gal1)
1 | rGal1: recombinant human galectin-1 | bound to ECs in a dose- and carbohydrate-dependent fashion | elicited | elicited | at levels similar to those attained by VEGF | – | – | – | – | – | – | – | –
2 | anti-Gal1 monoclonal antibody 8F4F8G7 (antibody, V domains shown, Murine hybridoma mAb (deposit PTA-10535), lambda light chain; also called 14-19 8F4-F8-G7; clone 8F4.8F.67) VH: EVQLQQSVAEFVRPGASVRLSCTASGFNIKNTYIHWVRQRPEQGLEWIGKIDPANGNTKYVPEFQGKATMTADTSSNTVYLHLSSLTSEDTAIYYCVDGYYGWYFAVWGTGTTVTVSS VL: QAVVTQESALTTSPGETVTLTCRSSTGAVTTSNYANWVQEKPDHLFTGLIGATNNRAPGVPARFSGSLIGDKAVLTITGAQTEDEAIYFCALWYRNHFIFGSGTKVTVL | – | – | – | – | binds | binds | prevented | prevent | prevent | did not alter | prevent | did not alter
